Assay results published in PMC9482650, “Quantitative fragmentomics allow affinity mapping of interactomes” (Nature Communications, 2022).

T1: TIAM2, Q8IVF5
T1 sequence (Q8IVF5 885-986, limits assumed, looked up): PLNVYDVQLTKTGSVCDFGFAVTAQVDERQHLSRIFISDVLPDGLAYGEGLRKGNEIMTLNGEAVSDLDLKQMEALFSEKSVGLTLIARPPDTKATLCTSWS


Each binder was assayed against T1, TIAM2, Q8IVF5 (assay: holdup assay). Conditions: plain residues with an end cap or a label only (N-terminal biotin on a linker: ado-ado).
Set-up: key: below the threshold = too weak to quantify, mostly under pKd 3.1 to 4

Binder	pKd
EDLTKNHDEL [RCN1, Q15293]	below the threshold
GFGEERESIL [KIDINS220, Q9ULH0]	below the threshold
SVVSERISSV [HTR2C, P28335]	3.88
QKNKDKEYYV [NRXN3_rs746444206, Q9Y4C0]	4.34
RGGFGRQTQI [NCBP2L, A6PVI3]	4.02
LHLHGTGIQV [EPHA7, Q15375]	below the threshold
EEPEERHTEL [CES2, O00748]	4.07
TETASVCTKV [SLC23A1, Q9UHI7]	below the threshold
FVHPILQSAV [PRKCA, P17252]	below the threshold

Same assay, conditions: plain residues with an end cap or a label only (N-terminal biotin on a linker: ahx)

Binder	pKd
EDEDEQVSAV [RAPGEF2, Q9Y4G8]	below the threshold
KKNKDKEYYV [NRXN1, Q9ULB1]	4.11
EKLSSIESDV [GRIN2B, Q13224]	3.71
KTSAHHATFV [RGS12, O14924]	below the threshold
SSSNSEDTEM [NHERF3, Q5T2W1]	below the threshold
RNCSTNDSLL [ADRB2, P07550]	below the threshold
HSGSYLVTSV [APC, P25054]	below the threshold
QGRWDHETIV [TMEM215, Q68D42]	below the threshold

Same assay, conditions: plain residues with an end cap or a label only (N-terminal biotin on a linker: gsgsgs; C-terminal amide)

Binder	pKd
ELIQDTSTSFSTTREW [ARAP3_int, Q8WWN8]	3.97

Same assay, conditions: plain residues with an end cap or a label only (N-terminal biotin on a linker: ttds)

Binder	pKd
CNTVTVETVV [MAS1, P04201]	below the threshold
TEEEVQDTRL [CFTR, P13569]	below the threshold
LDSQIQETSI [MAP4, P27816]	below the threshold
PKRPFVESNV [TANC2, Q9HCD6]	below the threshold
VNKVWDQSSV [CIT, O14578]	below the threshold
SPLHSLETSL [ATP2B1, P20020]	below the threshold
GGPKEEESPV [SLC16A1, P53985]	below the threshold
DPRNTQTSQI [ABRAXAS2, Q15018]	below the threshold
LCALPKVTTV [AGMAT, Q9BSE5]	below the threshold
QFQYAKESYI [TAGAP, Q8N103]	below the threshold
SRRPRTETQV [HPV31-E6, P17386]	below the threshold
